Binding result and Average fluorescence intensity data for eleven molecules are collected here from US20240182562A1 (ORICELL THERAPEUTICS, published 2024).

To fix the notation:
T1: Mouse CLDN18.2 (mouse, UniProt P56857 10-264)
T1 chain: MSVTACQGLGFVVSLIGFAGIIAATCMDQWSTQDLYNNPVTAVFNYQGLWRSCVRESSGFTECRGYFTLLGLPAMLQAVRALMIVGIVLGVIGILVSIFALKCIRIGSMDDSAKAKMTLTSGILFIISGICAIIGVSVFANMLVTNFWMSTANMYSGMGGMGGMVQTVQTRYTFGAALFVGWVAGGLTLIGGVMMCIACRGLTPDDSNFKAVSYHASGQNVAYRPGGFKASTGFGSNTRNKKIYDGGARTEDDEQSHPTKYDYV

T2: Cynomolgus monkey CLDN18.2 (cynomolgus monkey)
T2 chain: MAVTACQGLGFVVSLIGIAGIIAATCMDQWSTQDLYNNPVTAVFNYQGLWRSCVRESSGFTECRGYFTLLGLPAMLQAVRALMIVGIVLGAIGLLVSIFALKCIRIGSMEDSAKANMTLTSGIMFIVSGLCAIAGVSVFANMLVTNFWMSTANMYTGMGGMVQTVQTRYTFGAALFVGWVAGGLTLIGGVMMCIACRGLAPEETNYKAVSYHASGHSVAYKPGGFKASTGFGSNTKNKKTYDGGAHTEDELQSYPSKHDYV

B1: Standard antibody (antibody, V domains shown)
VH: QVQLQESGPGLIKPSQTLSLTCTVSGGSISSGYNWHWIRQPPGKGLEWIGYIHYTGSTNYNPALRSRVTISVDTSKNQFSLKLSSVTAADTAIYYCARIYNGNSFPYWGQGTTVTVSS
VL: DIVMTQSPDSLAVSLGERATINCKSSQSLFNSGNQKNYLTWYQQKPGQPPKLLIYWASTRESGVPDRFSGSGSGTDFTLTISSLQAEDVAVYYCQNAYSFPYTFGGGTKLEIKR
notes: detected with anti-human IgG-Fc
B2: c7E3 (antibody, V domains shown)
VH: EVQLQQSGPELVKPGASVKMSCKASGYTFTNYIIHWVKQKPGQGLEWIGYINPYTDGPKYNEKFKGRATLTSDKSSSTAYMEFSSLTSEDSAVYYCARLNRGNAMDYWGQGTSVTVSS
VL: DIVMTQSPSSLTVTVREKVTLSCKSSQSLLNSGNQKNYLTWYQQKPGQPPKLLIYWASTRESGVPDRFTGSGSGTDFTLTISSVQAEDLAVYYCQNVYIYPFTFGAGTKLELKR
B3: c14E12 (antibody, V domains shown)
VH: B2 VH with Q6E
VL: DIVMTQSPSSLSVSAGEKVTMSCKSSQSLLNNGNQKNYLAWYQQKPGQPPKLLIYGASTRESGVPDRFTGSGSGTDFALTISSVQAEDLAVYYCQNDLYYPFTFGSGTKLDIKR
B4: c3A6 (antibody, V domains shown)
VH: EVQLVESGGDLVQPGGSLKLSCAASGFTLSRYGMSWVRQTPDKRLEWVSTIISGGINTYYSDSVKGRFSISRDNARNTLYLQMSSLKSEDTAMYYCGRLYYGNAMDYWGQGTAVTVSS
VL: B2 VL with V15A, R16G, L21M, D76H, V97D, I99S, F102L
B5: c5E6 (antibody, V domains shown)
VH: B2 VH with I33V, I34M, H35N, T55N, P58T, K63R, R67K, Y80F, F83V, N100Y
VL: B2 VL
B6: c17B10 (antibody, V domains shown)
VH: B2 VH with Q6E
VL: B2 VL with V15A, R16G, L21M, S22N, V97D, I99S, Y100F, A106S, L112I
B7: 7E3 (hybridoma clone, murine CLDN18.2 antigen-binding protein) (antibody, V domains shown)
VH: B2 VH
VL: B2 VL
notes: Murine monoclonal antibody tested as hybridoma culture supernatant
B8: 3A6 (hybridoma clone, murine CLDN18.2 antigen-binding protein) (antibody, V domains shown)
VH: B4 VH
VL: B2 VL with V15A, R16G, L21M, D76H, V97D, I99S, F102L
notes: as for B7
B9: 14E12 (hybridoma clone, murine CLDN18.2 antigen-binding protein) (antibody, V domains shown)
VH: B2 VH with Q6E
VL: B3 VL
notes: as for B7
B10: 17B10 (hybridoma clone, murine CLDN18.2 antigen-binding protein) (antibody, V domains shown)
VH: B2 VH with Q6E
VL: B2 VL with V15A, R16G, L21M, S22N, V97D, I99S, Y100F, A106S, L112I
notes: as for B7
B11: 5E6 (hybridoma clone, murine CLDN18.2 antigen-binding protein) (antibody, V domains shown)
VH: B2 VH with I33V, I34M, H35N, T55N, P58T, K63R, R67K, Y80F, F83V, N100Y
VL: B2 VL
notes: as for B7

Changes are numbered by the printed parent chain.

The first assay addresses T3, Human CLDN18.2 (human, UniProt P56856-2 1-261).
T3 construct: whole, on cells; also called human Claudin18.2; hCLDN18.2
The assay is described as follows: FACS on SP2/0-hCLDN18.2 cells (FIG. 12).
Procedure: After counting, the SP2/0-hCLDN18.2 cell was resuspended in a flow cytometry buffer, adjusted to the density of 1×10⁶ cells/ml, and then added into V-bottom 96-well plates at 30 μl/well. Primary antibodies with initial working concentration of 80 μg/ml were added at 30 μl/well, and then gradient diluted with the flow cytometry buffer at a four-fold ratio to form 7 gradients. A PBS negative control was set up for each antibody. After inoculation at 4° C. for one hour, the plates were washed once with the flow cytometry buffer. The secondary antibody, i.e., goat F(ab′)2 anti-human IgG-Fc (DyLight® 650) (abcam, Cat #ab98593), was added at 30 μl/well. After inoculation at 4° C. for 30 minutes, the plates were washed twice with the flow cytometry buffer and the cells were shaken dispersedly. The flow cytometry buffer was added at 25 μl/well, and then the cells were ready for FACS on the flow cytometer. In the meanwhile, after counting, the SP2/0-hCLDN18.1 cell was loaded in plates. Primary antibodies with initial working concentration of 10 μg/ml were gradient diluted at a three-fold ratio to form 5 concentration gradients in total. The secondary antibody used was goat F(ab′)2 anti-human IgG-Fc (DyLight® 650) (abcam, Cat #ab98593). Original data were entered into the software GraphPad8.0 for graphing and calculation.
Regarding B1, the binding result is on record as “binds”.

For the next assay, the target named is T1, Mouse CLDN18.2. The assay can be described thus: FACS on 293T-mouse CLDN18.2 cells (FIG. 4).
Procedure: (§1) The species cross-binding activity of the above antigen-binding proteins to mouse CLDN18.2 and cynomolgus monkey CLDN18.2 were tested through FACS on the CytoFLEX flow cytometer (purchased from BECKMAN COULTER Company) using PBS containing 0.1% BSA as a buffer. […] The treated cells were then resuspended in a flow cytometry buffer to the cell density of 1×10⁶ cells/ml, and then added into V-bottom 96-well plates at 30 μl/well. Primary antibodies with initial concentration of 10 ug/ml were gradient diluted with the flow cytometry buffer at a three-fold ratio to form 6 gradients. […] After inoculation at 4° C. for one hour, the plates were washed once with the flow cytometry buffer. The secondary antibody (abcam, Cat #ab98593) was added at 30 μl/well. After incubation at 4° C. for 30 minutes, the plates were washed twice with the flow cytometry buffer and the cells were shaken dispersedly. The flow cytometry buffer was added at 30 μl/well, and then the cells were tested on the flow cytometer. Original data were entered into the software GraphPad8.0 for graphing and calculation.
Turning to B2, the binding result was “binds”.
On the same count and under the same terms, as for B3, the entry is “binds”; as for B4, “binds”; as for B5, “binds”.
Same read-out and setting: to B6 belongs “binds”.

For another assay, the target named is T2, Cynomolgus monkey CLDN18.2. The assay is described as follows: FACS on 293T-cynomolgus monkey CLDN18.2 cells (FIG. 4).
Procedure: as §1
On to B2, for which the binding result is “binds”.
Turning to B3, the binding result is reported as “binds”.
B4: the binding result is “binds”.
Same read-out and setting: as for B5, the entry is “binds”.
The same measure, in the same setting: to B6 belongs “binds”.

A further assay has as its target T3, Human CLDN18.2. The assay is described as follows: FACS, hybridoma culture supernatant on CHO-human CLDN18.2 cells. On the technique in general: A flow cytometer gives signals particle by particle.
Procedure: (§2) The cells were co-incubated at 4° C. for 1 hour and the plates were washed once with the flow cytometry buffer. A corresponding secondary antibody was added at 30 ul/well and co-incubated at 4° C. for 30 minutes and the plates were then washed with the flow cytometry buffer twice. After the cells were shaken loose, the FACS buffer was added at 25 μl/well, and FACS was then performed on the iQue Screener flow cytometer (purchased from IntelliCyt Company). The mother clones that were positive for CLDN18.2 in the primary sorting were picked for expansion culture in 24-well cell culture plates. Three days later, the cell supernatant was taken for re-sorting by FACS. […] The positive hybridoma mother clones were monocloned using a gradient dilution method. After two to three rounds of subcloning and FACS, a monoclonal hybridoma cell secreting a CLDN18.2-specific antibody was obtained.
B7: the Average fluorescence intensity worked out at 84800.
The same measure, in the same setting: to B8 belongs 215000.
In turn, B9 showed an Average fluorescence intensity of 27600.
B10 returned an Average fluorescence intensity of 52100.
Same read-out and setting: to B11 belongs 293000.

The next assay addresses T3, Human CLDN18.2. The assay can be described thus: FACS, hybridoma culture supernatant on 293T-human CLDN18.2 cells.
Procedure: as §2
On to B7, for which the Average fluorescence intensity was found to be 48200.
For the molecule B8, the Average fluorescence intensity was 101000.
Same read-out and setting: as for B9, the figure is 16600; as for B10, 30600.
Turning to B11, the Average fluorescence intensity amounted to 108000.
